Data on 20 sequences can be found in the DeepSol protein solubility set.

The nature of this series: soluble on expression in E. coli; label from the status in PepcDB or PDB records.
Consider “MGSDKIHHHHHHMEEARIKALISLLDDEDVEVISQVEKELLAQGGSMIPFLEKEWEENFNPIVQKRIEDLVHLLQFVLLEDRLSQWKNKGGTDLMEGLWLICTYQYPDLEFNTIKSAMEQIYYEVWLDMKPDMLPLEQVKLVMNNVLFNKLKFSANTKNFHSPANSMISQVLESKKGNPISLCCIYMMVAQKLKLPVYGVNLPTLFILTYKSDDTQFYISPFHKGLIFTKEDIDNYLLQLNLAPIDLYYQPCNNIDIVARVLRNLIVSFEKLSEMERVDDVKKMLHFLTGEKY”, for which the “soluble on expression in E. coli” value is listed as “not soluble”.
With “MSSEFISKVDKEARRKAANILRDKFLNLVEQLKKGEPLVMEIPMRTLSNAIYDEKRKLLLLGEKKLRRNFLDLNEAKRFMQTVLMASIIYDALVSDEYPTIRDLYYRGKHSLLLKSIEGNKIVSEENTWDEQKESDSVIVDIEVFTSLLREEMLILSKEKGKVVGNLRIRSGNDVIDLSKTGHGAYAIEPTPDLIDFIDVDAEFVLVVEKDAVFQQLHRAGFWKQYKSILITSAGQPDRATRRFVRRLNEELKLPVYILTDADPYGWYIFSVFRIGSISLSYESERLATPDAKFLGVSMGDIFGNSRKKPYLSEAERKNYIIKAKDADIKRAEEIKNYEWFKTKAWQEEINTFLQRKAKLEIEAMASKGLKFLAFQYIPEKITNKDYIA” the entry was “soluble”.
With “MGSDKIHHHHHHSQGKQISGSSNYITKNIKVGSFDQIKSMSSSDIVYTQKQGAPTVQIYGPDNIVELMETSVSGRTLTIKFKKNTSIRNSGKLEIRVSSPSLKHLSIYGSGNTTFTNGIKSHDELQMSIYGSGNISGNSFSCTKLAARIYGSGNVNLKRISTSDTQVNISGSGNVLLDGKSTEAEYHIAGSGDINATELKVENVNARISGSGSIRCYATENLTGGVSGSGNVAYKGNPQINFSKRGLQKL” the entry was “not soluble”; with “MSNYPLHQACMENEFFKVQELLHSKPSLLLQKDQDGRIPLHWSVSFQAHEITSFLLSKMENVNLDDYPDDSGWTPFHIACSVGNLEVVKSLYDRPLKPDLNKITNQGVTCLHLAVGKKWFEVSQFLIENGASVRIKDKFNQIPLHRAASVGSLKLIELLCGLGKSAVNWQDKQGWTPLFHALAEGHGDAAVLLVEKYGAEYDLVDNKGAKAEDVALNEQVKKFFLNNVVDKLAAALEHHHHHH”, “soluble”; with “MLIVGEDFGMRVSVLASSSSGNATYIETPGHKVLVDAGLSGKKIETLMQSIGRDLTDVDSVFITHEHSDHVRGVGVLARRYPKLSVYANAKTFAALPKSVGKIPEDQLRLFDMGATLTLGDLDVESFGVSHDAAAPQFYQFHHDGKTFTILTDTGYVSDRVAGTIRDADAYVMECNHDLEMLRTGPYPWPLKQRILGDQGHLSNEDGADALMDVIGLRTKRIYLGHLSPHNNNKPLAHLTVASLLAQQGLAVDHDFRIYDTDPAVADPLFVVLEHHHHHH”, “not soluble”.
As for “MHIAILGCTSQIAKDLIRSIYVYSQHDLILFGRTPQQTQSWLAENGITSRCSVNQYEEYPNIDHDVVINFVGIGDPSKAAAMGGSIFDITLHYDELVLNELKKYPDRRYLFLSSGAAYGSSFLEPADADTPSTININNLLPQEYYSVAKLHAECRHRSLKEYAIVDLRVFNVFSRTQDLEARFFITDIVRSIHSGTELITSSDMIYRDFMHPKDFYQLVERVLNAPPMNISLDCYSRQPVDKTTLLDEMKKTFGLSYRVKESNMSINATGIKPCYYSKNKRAAEFGYLPEYSSLETIIEETNAILGLQKTVLEHHHHHH”, the entry is “soluble”; as for “MAHHHHHHSAARRRASGENLQQTRPIAAANLQWESYAEALEHSKQDHKPIGLFFTGSDWCMWCIKMQDQILQSSEFKHFAGVHLHMVEVDFPQKNHQPEEQRQKNQELKAQYKVTGFPELVFIDAEGKQLARMGFEPGGGAAYVSKVKSALKLR”, “soluble”.
Regarding “MRLLDIWMRSAAALMLLSGAAFADVTVSQSNDPSVSLGGQLSALLGAERSALGTLPAQRLEQVAAAVARPEAKPEAPVKAVATKGNRGAKAADDAPAPRYDEAWLASQPATAKDSDEWKCLATALYFEARGESIQGQFAVAEVIMNRVDRPGYPGSICGVVRQGGQFSFMFDGKPETIREKAAFQRAGKIAALMLAGAPRQLTQGATHFHTRAVRPGWAHRFPRTAAIGAHLFYRQPGGS”, the “soluble on expression in E. coli” value is recorded as “not soluble”.
With “MGSDKIHHHHHHMTDNIKSRRSAVPGCAIHCHDCSMGTLCIPFTLNNNELDQLDDIIERKKPIQKGEQIFKSGDSLKSLYAIRSGTIKSYTITEQGDEQITGFHLAGDVIGFDGIHSQIHQSFAQALETSMVCEIPFDTLDELSGTMPKLRQQIMRLMSNEIQSDQEMILLLSKKNAEERLAAFISNLASRFGSRGFSPKEFRLTMTRGDIGNYLGLTVETISRLLGRFQKAELIEVKGKYITIVDFDSLNKLAGNNKIGR” the entry was “not soluble”; with “MKYQIVTSGFGGQGAVFIVKLLSLCAGIKGEKYLGTENHGMSQRGGSVSCFIKVGDFYTPVIEENQADMIIALEQNEGLRTLQYLKKGGKLIVNADDSLPRLEGCEAIKVDAFSLAKEGRFPAQALNAFMVGVASMQSGFPFDEETLKKGLEMINPKVAESNIQVFELGRACAPRS”, “not soluble”.
Turning to “MSLDSISLHKIFYKVLKNNTLPECQVIAAEGLCKLYLADIFNDDDLFETLILSYFSPSNSSNEGLIQAFAFCIPVYSYSHVLHQQRITKIASDVLLRLYMLWVDFQANEETDENIETMLKPNVILQQLISWTDPRKLIGENEKAINDNYQLNFLLDIFQQFPKFDKKNIKKMILTNINAFYVSSDNDMHKLREIKEHLEDIIENEIIDTMTLNSLEKFKNTIIDCLEEAKEKSENQTKDEIESSDGEYSMILESSNIGNISDVEKDVNVEAAQFSDSENDFEDSDDDTSRKRNRSKLEESIANNTSEKLSVNEDYDSEDTNEPKNDAKDINEPEDGTKDVIMEDSVSSNVIENSKNVSFILPDNDYSSSESSMSVDDESYKEEGHHHHHH”, the “soluble on expression in E. coli” value was “soluble”.
For the sequence “MAHHHHHHMECVELTPSESGTINRRGAIPANLAGNSYYARRYSTQGGTRRGTLDATEPHVQFRSGDLVLQLCLSAVPRELSHKRIVDVTGIQTSFHNVSERQSKALATVEEAMQTMHLHDGHEVPALQRGDVNLVRLQPRCVYISPPPSHSFAAGEAVAVDLRHLSSALRPLSNPYVLLAQTRRLSFRSEMEAVQTAQVMASFLTELRGGGAVSEGCGSSVGVFGSAAVLRPVVRDGHLVAMTLCPPRDTARGCRRR”, the “soluble on expression in E. coli” value is given as “not soluble”.
As for “MGSDKIHHHHHHMKQIKIGTCVPGPVAEEWLKGFVGKGFETFSLNFHMSLEGTDLDKLALSTEQILAGTDSKITTLGYYCNPIQYPEHRKTLEKVICTAEKFGATHVSTFAGAWEGKPVESAYEEFGKVFRELAELAEEKGVKLGIENCLMDGTWEHATCNIGFNPKAWEVMFEEVKNDNFGLEWEPTHQMVQLIDPVTELRKWCKKIVHVHGKDATIDWDAVRHGGISGAVPFVWHRMPGFGDTNWRDIISILRSNGYEDDICIEGYHDPVYRGELEMTGQLHALNYLKWCRGGEFTPTPWEK”, the entry is “not soluble”.
With “MNFNVIICGVGGQGVVLASRLLAITAMNSGFHVNTAETLGMSQREGSVVSHLQFGENIKSSLIPEGSTDLIIGLEVSEVARNIHFLKKDGKIITNSNLILPSARSSNEKYDSEKIINFIKEKVKSTICIDFSKIAKVAGNPKSMNVSVLSAAFYTGFLPLEYEDFLKTIESEIPEKYRDINLNATKLSAETISNMLEGHNE” the entry was “not soluble”.
“MVDRVIEMAIQQQPMTEPVGIPVIILKEGTQRSYGREALRANIMAVRAIAQILKTTYGPKGMDKMLVDSLGDITITNNGATILDKMDVAHPAAKMLVQISKGQEDEAGDGTKTTVIFAGELLKEAEKLLDINIHPTIIVEGYKEALRKASEVIESIAEPVSYDDVEKLKLIAKTSLNSKAVAEARDYFAELAVEAVRTVAERRGDRWYVDLNNIQIVKKHGGSLRDTRLVRGIVLDKEVVHPDMPRRVENARIALLDTPLEIEKPEIDLEISITSPEQIKALYEKQERILQEKIEKIAATGANVVITQKGIDDVAQHFLAKKGILAVRRVKRSDIEKIARATGARIVTDIEDLRPEDLGYAELVEERKVGEDKMVFIEGAKNPKSVTILLRGGFERLVDEAERSLHDALSVVADAIMDGKIVAGGGAVEAEVAKVLYEYASKLPGKTQLAVEAFARAVEALPQALAHNAGHDPIEVLVKLRSAHEKPENKWYGVDLDTGEIVDMWSRGVLEPMRVKLNALKAATEVASLILRIDDVIAARKEEEEKEEKRGGEEE”: the “soluble on expression in E. coli” value was “soluble”.
On to “MGSDKIHHHHHHMPIVTIGIDLAKNIFAVHGVDEAGKAMLIKPRVPRDQLATLIAQLPACLIGMEACSGAHHWARLFQQHGHTVKLMAPNLVAPYRMSGKRGKNDAADAAAICEAVARPSMRFVPLKDEHQQATLCLHRTRQGFVEERTATYNRLRGLLPEFGVVLPQSPEKLRRYVTEHLDALPGWAKRSIGDLLEHAGHIEDRLLEYDRAIAEIAREDARSKRLMQLRGVGPTTASALLASIGAGRDFRNGRQVAAWIGLTPGQYSSGGKARLGSITKAGDAYLRGLLVNGARAVIANLGEKQDRFSRWVRTLIERRGYWRAAVAIAAKNARLAWASLKYGEDFKLEPAAD”, for which the “soluble on expression in E. coli” value is reported as “not soluble”.
On to “MGSDKIHHHHHHMLPETMKAVVLTAHGGLDKLVYRDDVPVPVCRAGEVLLDVTACGLNNTDVWVREGAYGTDDDPQAVSTWRRGRSTLSFPRIQGADIVGRVIAVGHGVSDARVGERVIVDASIYNRDDDSLADIDYIGHGRDGGYAEYTAVPAQSAHRIDSACSDAELATFWCAYHTGEQMIERAAVKSGETVLITGASGGVGSAIVQLCRARGAVPYAVVSKGKEEAVRELGAQGVMLRDSEDFAAAVERMTGGRPVDVVADLVGGALFGKLLNVLRPEGRYTTAGAIAGPVVQLDLRTMYLKQLQLNGSSQGTRGAFKRVLDYIQAGTIRPVLAATYPLSKFHEAQTQFMAKRFVGNIVVVPDRHYNGTADRT”, for which the “soluble on expression in E. coli” value is given as “not soluble”.
As for “GMKNVTKASIDDLDSIVHIDIDVIGNDSRRNYIKHSIDEGRCVIVKEDNSISGFLTYDTNFFDCTFLSLIIVSPTKRRRGYASSLLSYMLSHSPTQKIFSSTNESNESMQKVFNANGFIRSGIVENLDEGDPEIIFYTKKLRA”, the entry is “soluble”; as for “SIHYTWQNALLDVSERLGVANNSVTLLQQKQANYVRAFADSYDFRTRINQGTPQDELQKWVTEQKKRYSLDFLSFQRVNSMENKFRFMDLTKRESFFDVLNREELEQLDPELAKRAEVPILADGGMEARGLVSRTVIPVYSQANDLIGFLDGGLLLNNSTVLVDQIRDLIYLSDNDRLRPVGTLTVFLDDLRVSTNVPLDSDHRLGRAIGTRVSAEVYNQVLSKGQQWVDRAYVYDAWYITAYQPIKDQYDNVIGMLYTGYLMWPFVKAYMTNIAE”, “not soluble”; as for “MVDKLKQQNCTISTCESLTAGLMAATIANLPGSSQVLRGGLITYATDSKVSVAGVPGATVEEHGPVSWQCAEAMAIGAKRQFQSQWAVSLTGVAGPATQCGQPVGTVWIGVALPNGTVKSKLVADILCGPGQVVAGDRQTIRLAAVRAAAMWITDLLGLEYTNEN”, “not soluble”.
